Earlier results as cited in PMC7922473.

Target: PrPC (cellular prion protein) (UniProt P04156)

Question: With “CGGTGGGGCAATTTCTCCTACTGT [PrPC aptamer (PrPC-Apt)]” as the sequence, how does the Kd read?
Answer: The Kd was 16 nM.
